A short description of the data set: label from the status in PepcDB records.
Regarding “MPDSVEDTSTISLRICLEGHANALALNKDNNQIALAGRSLLKVYSINSNGFTESCNMRGKNQNLSYSANDVAWSTLDSNLLATAATNGVVSVWDLSKFGRQKQLLVYNEHERTAHTVTFHSSEPNILISGSQDGTIKCFDIRSDKSINTYFCNSESVRDVKFSPHTQNIFSAVSENGTVQLWDMRKWDKCMVQFTAHYGPVYTCDWHPTRNWLATGSRDKQIKVWNMDGRPGLEHTIHTIAVVGRVKWRPERTYHIASCALVVDYSVHVWDIRRPYIPFASFNEHTNVTTGIAWQGSDSHCLLSISKDSTIYKHAFKDATRPALKANAQGASLGRFGDISFANKIKEYEPKTSGASNTKSSSFIRRKTNVAGSIQFHLDHSKMYKFMVNDTFSGYPLSESVSRPTQEHESFIGCARELVISGKKLSELCEHNAEVSKKYGKHNATTLWNFIKLFYGSNHFEPPFEHRSSFSNQKNPMNSRRATQVASDWPQQRTELGQDLNGNTPETAHEIDVANVDDDTLGSSGVEHPPTSSVILSETQIISEITFDNFELLRNGFIYVGPTECPKALAFPALHHDVQAARPQLDLKASDHEKSPVS”, the protein production entry is recorded as “failed”.

Regarding “MPDYVYGDSMVLKLTLEYSSVLLVSLICCIIAFTSTYTVMPRLINKLKEANVVGNDIHKISKPIVAEMGGIGILFGFTIGMFIGMYCFPELQYELMVTLLVILLVGIVGMVDDLVRLSSREKLFLLFLAGLPIIWVAPPKVGILYMIMMPVAVSIASNLTNMLAGLNGIESGLGSIAMTALTASCIIMGKYDVSIITMAMLGALLAFLMYNRYPSRVFPGDVGTLIIGACIASVAFIGRVKIIALIVLLPNIIDGILKFYSAGVVERHKHRPTEIAEDGKLIAPPEGFNSLIRWILRRPMTEKKVVMIVWSIGMFFGFLGVLLAFILPLDPF”, the protein production result was “failed”.

Turning to “MPEDLNWAIGGEAGDGIDSTGKIFAQALSRAGRHVFTSKDFASRIRGGYTAYKVRTSVDRVESVVDRLDILIALTERTIHENEDELHEDSVIIYDGERSTMQDVEVPGDATALEVPLKRLAEDAGGAIMLNVVALGAACEVTGFPIENLDESLEKRFGDKGEAIVENNKEAARKGQHYVQEEYGEFDYDMETTDEDYVLLNGDEAIGMGAIAAGCRFYSGYPITPATDVMEYMTGRVDQFGGKVVQAEDELSAINMALGAARAGARAMTATSGPGIDLMTETFGLVATSETPLVICDVMRSGPSTGMPTKQEQGDLNMTLYGGHGEIPRFVVAPTTVSECFWKTVEAFNLAEKYQTPVFLVSDLAMAVTEQTFSPETFDMDEVEIDRGKVVDENEIDAWLDEKGRFQAHFAAADGVSPRAFPGTTDGAHMTTGLEHDELGRRTEDTDVRIEQVDKRQRKVETAREQEDFDYREFGDSDADTLVISWGSNEGALREGLTLLEEDGYDVRFLSVPYIFPRPDLSEEIEAAEDVIVVECNATGQFADVIEHDVLERVQRINKYNGVRFKADELATEIKQTLDTPPEATQ”, the protein production entry is “failed”.

On to “MPEEALIVVDMQRDFMPGGALPVPEGDKIIPKVNEYIRKFKEKGALIVATRDWHPENHISFRERGGPWPRHCVQNTPGAEFVVDLPEDAVIISKATEPDKEAYSGFEGTDLAKILRGNGVKRVYICGVATEYCVRATALDALKHGFEVYLLRDAVKGIKPEDEERALEEMKSRGIKIVQF”, for which the protein production entry is given as “not failed”.

Take “MPELPEVETTRRRLRPLVLGQTLRQVVHRDPARYRNTALAEGRRILEVDRRGKFLLFALEGGVELVAHLGMTGGFRLEPTPHTRAALVLEGRTLYFHDPRRFGRLFGVRRGDYREIPLLLRLGPEPLSEAFAFPGFFRGLKESARPLKALLLDQRLAAGVGNIYADEALFRARLSPFRPARSLTEEEARRLYRALREVLAEAVELGGSTLSDQSYRQPDGLPGGFQTRHAVYGREGLPCPACGRPVERRVVAGRGTHFCPTCQGEGP”: the protein production entry is “not failed”.

As to “MPEQDVPRVRLFGAHELKISDIFDEKKDIYYVPIFQGKDDVNKLHQSAYTGKNTKCAILDSGVLTDHPYLKDRMDAIEDFTGHGFQDREGHGTAVALNLAMTAPDASILIGKVYENDDVPLSEYINRIARGVNWAIDSGARIINLSVGMEKRKEDISNYPGCSEAVKNVCKAITQAIENGISVLVAAGANFPADCHESIIVVGLPGNPVYPKDVHPTVYSPFSPILVPTFLFEGYAHLKMGMYEQALALFKQAADLHPEDHQLWKYQALCRYGLKKYNDAILSFDKALAIKQSDVKTWYLKGITLLALTQNDKAIECFDEVLKLVNNAGLTGMKLTEFSNSISDDWYNMGVYYEQASRYDEAANCYDKAIRIDPLNAKAWNNRGVILAIEEKYEDSIKYFEVATELKPSMVDAWFNKGLALSRIGKYEESIEFFDKAIAIDPASNKALKERIRVSGKLKSKEE”, the protein production entry is listed as “failed”.

Take “MPERINKMKIIAFYLPQFHNIPENDEWWGDGFTEWVNVKKAKPIFDGHNQPRVPLNHNYYNLLDDDVKIWQADLAKKYGVYGFCYYHYWFDGKLLLEKPMEQMLENKKVDIPFCICWANEPWTRAWVGETKTLIPQKYGSKKEWKEHFDYLLPFFKDPRYILDEGKPLVVIYRPEIIDVLNDMLDYWNELAKNAGFEGLKFAYQSAGMDELPKNKRNDSRFDYDIEFQPAYAFTKLNKNTLPVLRKIKKVVSDFVEKRTGLTLRFIGSGKVAALNRVDYDKAWETILNTTPESIINVPGAFVDWDNTPRHGERGRVYIGKTPEKFEKYLSEQIRRAKNVYHKDMIFMYAWNEWAEGGYLEPDQTSGYAYLEAIKKALDENGENPWQH”: the protein production result is “failed”.

Consider “MPESRVKSEPSPAPYWRRNVRLIVLLLACWAGLTFVPAYFARQLAFDFIGWPFSFWMAAYGAPLAYLILIVIYALVMNRFDARSRTRRDD”, for which the protein production entry is listed as “failed”.

For “MPETYIITPNLNGVSFLEVYFRSLLRQTYEDFRVVFIDNGSSDGSVDFIKSNFSEYLGDRIILIENHENLGFAASNNQGIRIALDDPQCRYVVCLNNDTEVLPDFIENLILAAGDDERVGSVQARMIWGQNRKLIDSAGLEYSLNGLGFNRGAYEPVENFNERARILGCCAGACLYRREALEDVEVDAEYFDEDFFAYYEDFDLALRLRSAGWDSLYAPDATVYHYKGGTNPFISDFTVYHNWRNYTWTFIKNMPADLLLMCLPLFVLTEIIQVLLNIKRGKLIILRAKYDAYRGLGRVIRKRRALKRVPESEIKEYLTMRWSVKVPSPQED”, the protein production entry is “failed”.

On to “MPFINIKLVPENGGPTNEQKQQLIEGVSDLMVKVLNKNKASIVVIIDEVDSNNYGLGGESVHHLRQKN”, for which the protein production entry is listed as “failed”.

As to “MPFNTLAPQFSRLGPGLVLSIAATGLAFAIHTVFPAVPAMTLAVALGLLSANIPGTAVLTAGRARPGLDFAGKHLMRAGIVLLGLKVSIGDVIGLGWLSLLLIAGVVLLSFAGTYGLARLLRLPGEAALLIATGFSICGASAIGAMAAVRRIKHQDTVLPVALVTLCGTLAIGVLPLLMHPLNLNPEQFGAWTGASVHDVGQVVATAQTAGTSALAIAVVVKLTRVVLLAPVAAAAGVHQRILHVRERSNGKGDAAKSIDGRFPPIVPLFVVGFLSMVAVRSLGWVPPVGLEIAAAVQDILLATALFGLGSAVRVRTLIHTGGRAILVALGSWLLIASLGLGAAWIMIR”, the protein production entry is recorded as “failed”.

Consider “MPFRTIARLNPAKPKAGEEFRLQVVAQHPNEPGTRRDAEGKLIPAKYINLVEVYFEGEKVAEARPGPSTSANPLYAFKFKAEKAGTFTIKLKDTDGDTGEASVKLELV”, for which the protein production entry is recorded as “not failed”.

With “MPFVLRCLLCCTLFVLGGCAAHEAPLAPVNPMGLSGNVAPEAEKNYALARVLWGNSEVCSDPVQAVAYLDRAIAVQPDYAAAYQRRGLAYSEMGRYEEAFEDLTKALRLKPGVEAYTYRGLVSMRMGNLIGARKDLDHALELDSGYHRAWNFRAAVRLQQDDTAGACADFAKGCSKGDCTGMESARESGICK”, the protein production result is “failed”.

In the case of “MPGSIPLIGERFPEMEVTTDHGVIKLPDHYVSQGKWFVLFSHPADFTPVCTTEFVSFARRYEDFQRLGVDLIGLSVDSVFSHIKWKEWIERHIGVRIPFPIIADPQGTVARRLGLLHAESATHTVRGVFIVDARGVIRTMLYYPMELGRLVDEILRIVKALKLGDSLKRAVPADWPNNEIIGEGLIVPPPTTEDQARARMESGQYRCLDWWFCWDTPASRDDVEEARRYLRRAAEKPAKLLYEEARTHLH”, the protein production entry was “not failed”.

As to “MPGSPRGLCTRSRKSTMSTHGTIGVLGAGEVGQAVADKAVRHGHEVLIGNSRGPRTLEALVGRLGPKARAVTAEEAVQPELVFLSVPFFAVPELTGLTTWAGKIVVDTTNQFAAANPWRGRYDVGDLTGSEWVARHLPGARLVKALNTLFATFIAADPRHAEGRQVAFYAGDDADAKTAVAGLLDEFGFAALDLGGLRDGGRLMQLDGALSAKHLLLQDVG”, the protein production entry is “failed”.

On to “MPGVLVTGGTGKTGKVLVQVLRNAGVQARVASRNPAAADPDPIRFDWNDPTTYGPALDGMDRVFLLPPVESVDPLPLVEPFLRRAQRAGVQRLVMLGSAIVLPNAPSAVEMAAQVQAQPGGVVLRASGFMQNFLRPHPLAEHIHRLGEIRTAAGDGRLGWVDARDIAASAAALLADLEVDARSDYLITGPHGMSYPQAAQIITAQTGRRVRVERITEEEQAAAHRASGMPPAFADALAAVERGIKEGREDQVSTAVLELTGRPPRTFAEFVSDHAYEWTQ”, for which the protein production entry is “failed”.

As to “MPGWHALTKPARFRYPEGLHGREIRVEFIDNIRYKKIKNAVGRAVADFGLIRDGDRIAVAVSGGKDSYTLLHILEGLRRRAPVKYELVAVTIDSGYPGFRSDVIASYLREQGFAHHLETTDHYDIIREKRRPGSSYCSICARLKRGVLYTLAQKLGCNKLALGHHLDDFVETLLLNQFFVGTLKAMAPRMLADNGETTVIRPLVYVEEREIIPFARENRFPVVCCSCPVCGTADLQRRRMKKLLTELEKENPAVKRSLLRALGNVQPRYLLDLELQRLCDVP”, the protein production entry is “failed”.

With “MPHLRFRAVEAHIVESLVPTLLNELSSLLSTARNAFTFELINTQYFAEGGVYPMVEVLWFGREQQTQDQIAQVITDQIRQLLGADSHLAVVFIPLQRTAYYLDGQHF”, the protein production entry is on record as “not failed”.

As to “MPHLVIEATANLRLETSPGELLEQANAALFASGQFGEADIKSRFVTLEAYRQGTAAVERAYLHACLSILDGRDAATRQALGESLCEVLAGAVAGGGEEGVQVSVEVREMERASYAKRVVARQR”, the protein production result is recorded as “not failed”.

As for “MPHNLFSLFSQPLKPPLFEPGEPRFWDDPHISKSMLEAHLNQTHDGASRRNAEIEKTIRHLITSGFLKTGDQVLDLGCGPGLYSSKLCFEGMKVTGIDLSRRSIDYARAQAERDGQNIDYIYTDFFNIDYKETFDAVLQVYGEICTFSDEKRDLLLNLVHRALKDNGIFIFDVSTRELRMREGLKNRWYFSEGGFWRPGKHLVLEEGFDYPENDTWLNQYIIVDEDGTVKVYRLWLHDYSFETISQTLENNGFRVEKAWNNLSGELYQKGGDWIAIAAKKV”, the protein production entry was “failed”.

With “MPHRKNTFSSWRSRLAQKAVHAGWAWVQRTGSVTAAHPGRFRFGALGTGTRLAFPLGTVFGEPWIQVGAHCIIGEQVTLTAGLMPDLDLGPEPILRIGDGVVLGRGSHVIADTTVTIGSDCYFGPYVYVTSTNHSYDDPHQPIGKQWPRMDPVEIGPGCWIGTGAVILPGARIGRNVVVAAGAVVRGAVPDHAVVAGAPARVVRRWTPAEGWQPPLRTPAPVPIPDGITPGQLRELSKLDDEAVARLAELDDPERAAGRLAEPAAEG”, the protein production result is given as “failed”.

“MPIDEWLVLNRIGIFENPSLRRYVSPFPPPELMGITSGLQSETGFAAHGADIYAALALASTIPITEYRHILDFGCGCGRLARMLKGHPHKISGCDIDLRHVKWIGQSLDFMNVKLSSVRPPIPFADDEMDAVISVSIFTHLTENSQDDFLAELFRVTRPGGTLFLTVHGAQALKRACHEQPIRHMLDMDEGRFRKAQQAFNQNKHGFVLQFGHLTTKPEKAFYTPRAIFRRIRDSFSRKTINMPFEYGIAFHPESYIREHWSKWFDILDYRHGAIHQFQDIVVLSPKK”: the protein production result was “failed”.

The record behind these values is a protein production outcome set (Wang et al. 2014).
